Results taken from paper PMC10397247.

Key:
Assay in all cases: two-hybrid library CCmax;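 further: natural log of median RNA to DNA barcode read ratio; higher means stronger binding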
4H780-AA = biological target: T1, 4H780-AA; conditions: mean of both orientations
T1 chain: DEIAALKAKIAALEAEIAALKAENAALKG

4H2575-AA = biological target: T2, 4H2575-AA; conditions: mean of both orientations
T2 chain: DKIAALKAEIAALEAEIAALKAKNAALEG

4H342-AA = biological target: T3, 4H342-AA; conditions: mean of both orientations
T3 chain: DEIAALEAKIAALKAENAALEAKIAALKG

4H122-AA = biological target: T4, 4H122-AA; conditions: mean of both orientations
T4 chain: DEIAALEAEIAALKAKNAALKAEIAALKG

4H429-AA = biological target: T5, 4H429-AA; conditions: mean of both orientations
T5 chain: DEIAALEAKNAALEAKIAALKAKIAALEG

4H3921-AA = biological target: T6, 4H3921-AA; conditions: mean of both orientations
T6 chain: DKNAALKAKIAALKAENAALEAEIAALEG

4H2617-AA = biological target: T7, 4H2617-AA; conditions: mean of both orientations
T7 chain: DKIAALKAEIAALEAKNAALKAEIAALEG

4H2078-AA = biological target: T8, 4H2078-AA; conditions: mean of both orientations
T8 chain: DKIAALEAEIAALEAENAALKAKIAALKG

4H3427-AA = biological target: T9, 4H3427-AA; conditions: mean of both orientations
T9 chain: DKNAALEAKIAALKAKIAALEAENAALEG

4H993-AA = biological target: T10, 4H993-AA; conditions: mean of both orientations
T10 chain: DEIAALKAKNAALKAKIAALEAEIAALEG

4H2466-AA = biological target: T11, 4H2466-AA; conditions: mean of both orientations
T11 chain: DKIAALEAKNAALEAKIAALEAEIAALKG

4H2393-AA = biological target: T12, 4H2393-AA; conditions: mean of both orientations
T12 chain: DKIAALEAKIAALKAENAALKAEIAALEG

4H3112-AA = biological target: T13, 4H3112-AA; conditions: mean of both orientations
T13 chain: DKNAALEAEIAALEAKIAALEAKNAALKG

4H1552-AA = biological target: T14, 4H1552-AA; conditions: mean of both orientations
T14 chain: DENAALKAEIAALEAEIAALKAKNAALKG

4H2944-AA = biological target: T15, 4H2944-AA; conditions: mean of both orientations
T15 chain: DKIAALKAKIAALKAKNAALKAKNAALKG

4H794-AA = biological target: T16, 4H794-AA; conditions: mean of both orientations
T16 chain: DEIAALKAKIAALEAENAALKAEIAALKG

4H605-AA = biological target: T17, 4H605-AA; conditions: mean of both orientations
T17 chain: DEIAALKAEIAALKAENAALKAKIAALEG

4H3627-AA = biological target: T18, 4H3627-AA; conditions: mean of both orientations
T18 chain: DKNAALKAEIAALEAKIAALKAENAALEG

4H2165-AA = biological target: T19, 4H2165-AA; conditions: mean of both orientations
T19 chain: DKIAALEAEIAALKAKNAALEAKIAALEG

4H2354-AA = biological target: T20, 4H2354-AA; conditions: mean of both orientations
T20 chain: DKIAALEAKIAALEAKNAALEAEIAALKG

4H2837-AA = biological target: T21, 4H2837-AA; conditions: mean of both orientations
T21 chain: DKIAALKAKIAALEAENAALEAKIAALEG

4H1153-AA = biological target: T22, 4H1153-AA; conditions: mean of both orientations
T22 chain: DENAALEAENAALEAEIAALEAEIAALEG

4H2277-AA = biological target: T23, 4H2277-AA
T23 chain: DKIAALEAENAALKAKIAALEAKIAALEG

4H3343-AA = biological target: T24, 4H3343-AA; conditions: mean of both orientations
T24 chain: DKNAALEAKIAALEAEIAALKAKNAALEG

4H335-AA = biological target: T25, 4H335-AA; conditions: mean of both orientations
T25 chain: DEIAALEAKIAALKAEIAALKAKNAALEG

4H906-AA = biological target: T26, 4H906-AA; conditions: mean of both orientations
T26 chain: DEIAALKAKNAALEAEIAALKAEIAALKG

4H1636-AA = biological target: T27, 4H1636-AA; conditions: mean of both orientations
T27 chain: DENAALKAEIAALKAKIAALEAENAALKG

4H1086-AA = biological target: T28, 4H1086-AA
T28 chain: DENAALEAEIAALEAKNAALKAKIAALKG

4H2505-AA = biological target: T29, 4H2505-AA; conditions: mean of both orientations
T29 chain: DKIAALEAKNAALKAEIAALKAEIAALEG

4H2642-AA = biological target: T30, 4H2642-AA; conditions: mean of both orientations
T30 chain: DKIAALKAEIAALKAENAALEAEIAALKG

4H2190-AA = biological target: T31, 4H2190-AA; conditions: mean of both orientations
T31 chain: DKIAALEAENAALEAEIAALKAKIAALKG

4H1867-AA = biological target: T32, 4H1867-AA; conditions: mean of both orientations
T32 chain: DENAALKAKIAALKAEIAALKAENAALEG

4H881-AA = biological target: T33, 4H881-AA; conditions: mean of both orientations
T33 chain: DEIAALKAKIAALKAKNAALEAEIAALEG

4H566-AA = biological target: T34, 4H566-AA; conditions: mean of both orientations
T34 chain: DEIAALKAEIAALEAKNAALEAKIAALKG

4H678-AA = biological target: T35, 4H678-AA; conditions: mean of both orientations
T35 chain: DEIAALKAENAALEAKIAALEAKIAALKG

4H317-AA = biological target: T36, 4H317-AA; conditions: mean of both orientations
T36 chain: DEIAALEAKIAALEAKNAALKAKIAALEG

4H1352-AA = biological target: T37, 4H1352-AA; conditions: mean of both orientations
T37 chain: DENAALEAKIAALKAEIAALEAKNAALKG

4H2729-AA = biological target: T38, 4H2729-AA; conditions: mean of both orientations
T38 chain: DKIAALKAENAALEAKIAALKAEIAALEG

4H234-AA = biological target: T39, 4H234-AA; conditions: mean of both orientations
T39 chain: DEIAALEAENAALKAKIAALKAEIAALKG

4H3844-AA = biological target: T40, 4H3844-AA; conditions: mean of both orientations
T40 chain: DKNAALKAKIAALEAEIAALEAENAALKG

4H717-AA = biological target: T41, 4H717-AA; conditions: mean of both orientations
T41 chain: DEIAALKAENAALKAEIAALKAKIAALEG

4H2949-AA = biological target: T42, 4H2949-AA; conditions: mean of both orientations
T42 chain: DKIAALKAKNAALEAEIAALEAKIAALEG

4H3655-AA = biological target: T43, 4H3655-AA; conditions: mean of both orientations
T43 chain: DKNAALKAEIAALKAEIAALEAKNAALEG

4H1324-AA = biological target: T44, 4H1324-AA; conditions: mean of both orientations
T44 chain: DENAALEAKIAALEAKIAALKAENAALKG

4H2754-AA = biological target: T45, 4H2754-AA; conditions: mean of both orientations
T45 chain: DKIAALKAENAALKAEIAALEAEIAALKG

4H454-AA = biological target: T46, 4H454-AA; conditions: mean of both orientations
T46 chain: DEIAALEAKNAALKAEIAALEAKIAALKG

4H1135-AA = biological target: T47, 4H1135-AA; conditions: mean of both orientations
T47 chain: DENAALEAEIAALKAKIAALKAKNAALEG

DENAALEAEIAALEAKNAALKAKIAALKG [4H1086-AA] gave an interaction score (4H780-AA) of -1.37, an interaction score (4H2575-AA) of 0.522 and an interaction score (4H342-AA) of 1.88. It also gave an interaction score (4H122-AA) of -0.74, an interaction score (4H429-AA) of 0.612 and an interaction score (4H3921-AA) of 2.16. For the same binder, the interaction score (4H2617-AA) was 0.841, the interaction score (4H2078-AA) was -1.42 and the interaction score (4H3427-AA) was -0.568. For the same binder, the interaction score (4H993-AA) was -0.479, the interaction score (4H2466-AA) was -1.65 and the interaction score (4H2393-AA) was 1.89. The interaction score (4H3112-AA) was -1.57, the interaction score (4H1552-AA) was -0.495 and the interaction score (4H2944-AA) was -1.29. The interaction score (4H794-AA) was -0.327, the interaction score (4H605-AA) was -0.771 and the interaction score (4H3627-AA) was -0.932. It also gave an interaction score (4H2165-AA) of -1.24, an interaction score (4H2354-AA) of -0.946 and an interaction score (4H2837-AA) of 2.25. For the same binder, the interaction score (4H1153-AA) was -0.756, the interaction score (4H2277-AA) was -2.16 and the interaction score (4H3343-AA) was -1.72. The interaction score (4H335-AA) was -1.27, the interaction score (4H906-AA) was -1.8 and the interaction score (4H1636-AA) was -1.62. For the same binder, the interaction score (4H1086-AA) was -1.1, the interaction score (4H2505-AA) was -1.28 and the interaction score (4H2642-AA) was 1.79. For the same binder, the interaction score (4H2190-AA) was 1.78, the interaction score (4H1867-AA) was -1.02 and the interaction score (4H881-AA) was 1.89. For the same binder, the interaction score (4H566-AA) was -0.902, the interaction score (4H678-AA) was -0.364 and the interaction score (4H317-AA) was -0.992. It also gave an interaction score (4H1352-AA) of -0.965, an interaction score (4H2729-AA) of 1.34 and an interaction score (4H234-AA) of -1.17. For the same binder, the interaction score (4H3844-AA) was -0.082, the interaction score (4H717-AA) was -1.78 and the interaction score (4H2949-AA) was 0.739. The interaction score (4H3655-AA) was -0.935, the interaction score (4H1324-AA) was -0.552 and the interaction score (4H2754-AA) was 0.514. It also gave an interaction score (4H454-AA) of -0.949 and an interaction score (4H1135-AA) of -0.938.
